B1: AUP1 (parent)
chain: FCASTRLPPTPLLLFPEEEATNGR

Variants of: B1
Assay: protein stability index of a GFP-peptide fusion (GPS, HEK-293T) (PSI 1-6); higher = more stable
Conditions: c terminus: a fixed tail appended
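Note: lentivirally expressed fusions sorted by FACS into six bins by GFP to DsRed ratio, PSI derived from sequencing read proportions per bin multiplied by bin number.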

| Variant | protein stability index |
| --- | --- |
| FCASTRLNPTPLLLFPEEEATNGR [P8N] | 2.66 |
| FCASTRLPPTPLLLFPEEEATNYR [G23Y] | 2.32 |
| FKASTRLPPTPLLLFPEEEATNGR [C2K] | 4.06 |
| FCASTRLPPTPLLLFPNEEATNGR [E17N] | 2.55 |
| FCASTRLPPTPLLLFPEVEATNGR [E18V] | 2.21 |
| FCASTNLPPTPLLLFPEEEATNGR [R6N] | 3.5 |
| FCASTSLPPTPLLLFPEEEATNGR [R6S] | 3.29 |
| FCCSTRLPPTPLLLFPEEEATNGR [A3C] | 2.78 |
| FCASTRLPPTPLLLFPEEEVTNGR [A20V] | 2.7 |
| FCASTRLPPTPLLLFPEEEDTNGR [A20D] | 3.12 |
| FCASTRLPGTPLLLFPEEEATNGR [P9G] | 2.78 |
| FCYSTRLPPTPLLLFPEEEATNGR [A3Y] | 1.7 |
| FWASTRLPPTPLLLFPEEEATNGR [C2W] | 2.76 |
| FCASTKLPPTPLLLFPEEEATNGR [R6K] | 3.09 |
| FCASTRLPPTPDLLFPEEEATNGR [L12D] | 3.72 |
| FCASTRLPPTPLLLFPEFEATNGR [E18F] | 1.82 |
| FCASTRLPPKPLLLFPEEEATNGR [T10K] | 3.04 |
| VCASTRLPPTPLLLFPEEEATNGR [F1V] | 4.27 |
| FCASTRLPPTPLLLFPEEYATNGR [E19Y] | 2.69 |
| FCASTRLPPTPLLLIPEEEATNGR [F15I] | 3.23 |
| FCASTRLPPTPLLLFPEEEMTNGR [A20M] | 2.88 |
| FCASTRLPPTPLILFPEEEATNGR [L13I] | 2.77 |
| FLASTRLPPTPLLLFPEEEATNGR [C2L] | 3.39 |
| FCASTRLPPTPLQLFPEEEATNGR [L13Q] | 3.32 |

| Variant | protein stability index |
| --- | --- |
| FCASVRLPPTPLLLFPEEEATNGR [T5V] | 2.83 |
| FCASWRLPPTPLLLFPEEEATNGR [T5W] | 2.49 |
| FCASTRLPPTPLLLFPEREATNGR [E18R] | 2.23 |
| FCASTRLPPAPLLLFPEEEATNGR [T10A] | 3.13 |
| FCASTRLPPTPLLLFPEEEATNAR [G23A] | 2.86 |
| FCASTRLPFTPLLLFPEEEATNGR [P9F] | 1.58 |
| FCAHTRLPPTPLLLFPEEEATNGR [S4H] | 3.05 |
| FCASTRLPPTALLLFPEEEATNGR [P11A] | 2.39 |
| FCASTRLPPTPLLLFPEEEAMNGR [T21M] | 2.46 |
| FCASTRLPPTPLLLFPEECATNGR [E19C] | 2.04 |
| FCASTRLPPTTLLLFPEEEATNGR [P11T] | 2.74 |
| FCASTRLPPTRLLLFPEEEATNGR [P11R] | 2.06 |
| FCASQRLPPTPLLLFPEEEATNGR [T5Q] | 2.86 |
| FCASTRLPPTPLLLSPEEEATNGR [F15S] | 3.45 |
| FCASTRLPPTPLLPFPEEEATNGR [L14P] | 3.48 |
| FCASTRLPPTPLLLFPEETATNGR [E19T] | 2.68 |
| FCASTRLPPTPLLMFPEEEATNGR [L14M] | 3.29 |
| FCASTYLPPTPLLLFPEEEATNGR [R6Y] | 2.33 |
| FCASTRLAPTPLLLFPEEEATNGR [P8A] | 2.48 |
| FCASTRLPPTPLLLFPEEESTNGR [A20S] | 3.21 |
| FCASTRLPPTPLLLFPEEEARNGR [T21R] | 2.8 |
| FCASTRLSPTPLLLFPEEEATNGR [P8S] | 2.84 |
| FCASTRLPPTPLLLFSEEEATNGR [P16S] | 2.4 |
| FCASTHLPPTPLLLFPEEEATNGR [R6H] | 3.25 |

| Variant | protein stability index |
| --- | --- |
| FNASTRLPPTPLLLFPEEEATNGR [C2N] | 3.82 |
| FCASTRLPPTPLLYFPEEEATNGR [L14Y] | 2.59 |
| HCASTRLPPTPLLLFPEEEATNGR [F1H] | 4.28 |
| ACASTRLPPTPLLLFPEEEATNGR [F1A] | 4.17 |
| FCASTRLPPTPLLLFPEEEATNNR [G23N] | 2.97 |
| FCASTRLPPTPLLLFPEENATNGR [E19N] | 2.62 |
| FCASTRLKPTPLLLFPEEEATNGR [P8K] | 2.09 |
| KCASTRLPPTPLLLFPEEEATNGR [F1K] | 4.17 |
| FCASTRLPPTPLLLFPEEEAHNGR [T21H] | 2.69 |
| FCASTRLPPTPLLLFPDEEATNGR [E17D] | 2.7 |
| FCASTRLPPTPLLKFPEEEATNGR [L14K] | 2.8 |
| FCASTRLPPLPLLLFPEEEATNGR [T10L] | 2.23 |
| FRASTRLPPTPLLLFPEEEATNGR [C2R] | 3.81 |
| FCASTRLPPTPGLLFPEEEATNGR [L12G] | 2.87 |
| FCASTRLPPTPLLLFLEEEATNGR [P16L] | 1.57 |
| FCASTRLPLTPLLLFPEEEATNGR [P9L] | 2.11 |
| FCASTRLPPTPLGLFPEEEATNGR [L13G] | 3.42 |
| FCASTRLPPTPLLLFPEEEATFGR [N22F] | 2.18 |
| FCASTRLPPTPLKLFPEEEATNGR [L13K] | 2.74 |
| FCASTRLPPTPLLLFPEEEATDGR [N22D] | 3.1 |
| FCASTRLPPTHLLLFPEEEATNGR [P11H] | 2.33 |
| FCAATRLPPTPLLLFPEEEATNGR [S4A] | 2.8 |
| FCASTRLPPTPLLLFPEEEATSGR [N22S] | 2.5 |
| FCASTRLPPTPLLLFPEEEATNGY [R24Y] | 1.88 |

| Variant | protein stability index |
| --- | --- |
| FCASTRLPPTPLLLFNEEEATNGR [P16N] | 2.9 |
| FCASTRLPPTPLLLFTEEEATNGR [P16T] | 1.74 |
| FCDSTRLPPTPLLLFPEEEATNGR [A3D] | 3.33 |
| FCASTRLPPTPLLLAPEEEATNGR [F15A] | 2.93 |
| FCASERLPPTPLLLFPEEEATNGR [T5E] | 3.77 |
| FCASTRLPPTPRLLFPEEEATNGR [L12R] | 3.12 |
| FCASTRLPPTPLLLFPEEEATKGR [N22K] | 2.75 |
| FCASTRLPPTPLLLFPEKEATNGR [E18K] | 2.32 |
| FCHSTRLPPTPLLLFPEEEATNGR [A3H] | 2.49 |
| FCASTGLPPTPLLLFPEEEATNGR [R6G] | 2.7 |
| FCASTRLPPTPLLLFPEEEATVGR [N22V] | 2.16 |
| FCASTRLPPTPLLLFPEEEATMGR [N22M] | 2.56 |
| FCAMTRLPPTPLLLFPEEEATNGR [S4M] | 2.59 |
| FCASTRLPPTPLLLFPEEEFTNGR [A20F] | 2.21 |
| FCASTRLPPTPLLLFPEEEATNGD [R24D] | 3.3 |
| FAASTRLPPTPLLLFPEEEATNGR [C2A] | 3.42 |
| FCASTRLPPTPLLLFPEHEATNGR [E18H] | 2.15 |
| FCTSTRLPPTPLLLFPEEEATNGR [A3T] | 2.84 |
| FCASTRLPPTPLLLFAEEEATNGR [P16A] | 2.68 |
| FPASTRLPPTPLLLFPEEEATNGR [C2P] | 3.92 |
| FCASNRLPPTPLLLFPEEEATNGR [T5N] | 3.05 |
| FCAGTRLPPTPLLLFPEEEATNGR [S4G] | 2.85 |

— the supplement of paper PMC10567573
